Experimental findings from patent publication US20250019461A1 (HUMMINGBIRD BIOSCIENCE PTE, published 2025) are described below.

The target in experiment [1] is T1, human HER3 expressed at the cell surface (human, UniProt P21860 20-1342).
T1 construct: also called HEK293 HER3 O/E cells; HEK293 cells transfected with vector encoding human HER3
Briefly: flow cytometry on HEK293 cells overexpressing human HER3 (HEK293 O/E H3), antibody 20 µg/ml, FITC anti-Fc secondary; same antibody on WT HEK293: 1.91.

Experiment [2] deals with T2, recombinant human HER3 polypeptide (His-tagged) (human, UniProt P21860 20-643, biotinylated in the HER2 (Example 4.1) and EGFR (Example 8.7) dimerisation ELISAs).
T2 construct: Soluble recombinant human HER3 preparations of the ELISA, BLI and dimerisation assays are gathered here; also called His-tagged human HER3; human HER3 polypeptide (Sino Biological); not shown: His tag
Briefly: plate ELISA of the EGFR:HER3 interaction: human EGFR-His coat, HER3-biotin 4 µg/ml and NRG 0.1 µg/ml with titrated antibody, avidin HRP detection; blocked partner EGFR-His.

Another experiment deals with T3, human EGFR (human, UniProt P00533 25-645).
T3 construct: also called human HER1 (EGFR) (Sino Biological)
Briefly: ELISA, plate coated with 0.1 µg/ml human EGFR, antibody serially diluted. For orientation: An ELISA detects its analyte on a solid surface through an enzyme-linked reagent.

A further experiment has as its target T4, human HER2 (human, UniProt P04626 23-652).
T4 construct: also called human HER2 (Sino Biological)
Briefly: ELISA, plate coated with 0.1 µg/ml human HER2, antibody serially diluted.

For experiment [3], the target named is T1, human HER3 expressed at the cell surface. Briefly: flow cytometry on HEK293 cells overexpressing human HER3 (HEK293 O/E H3), antibody 20 µg/ml, FITC anti-Fc secondary; same antibody on WT HEK293: 0.60. For orientation: In flow cytometry, cells or beads pass a laser one at a time.
Experiment [4] shares this target. Described as above. This is another data set of the same source.
Experiment [5] concerns the target T2, recombinant human HER3 polypeptide …. Briefly: ELISA, plate coated with human HER3, antibody serially diluted.

B1: anti-HER3 antibody clone LJM716 (antibody, V domains shown)
VH: EVQLLESGGGLVQPGGSLRLSCAASGFTFSSYAMSWVRQAPGKGLEWVSAINSQGKSTYYADSVKGRFTISRDNSKNTLYLQMNSLRAEDTAVYYCARWGDEGFDIWGQGTLVTVSS
VL: DIQMTQSPSSLSASVGDRVTITCRASQGISNWLAWYQQKPGKAPKLLIYGASSLQSGVPSRFSGSGSGTDFTLTISSLQPEDFATYYCQQYSSFPTTFGQGTKVEIK
As for B1, the “% Parent (HER3 positive)” value in experiment [1] was determined as 99.5%.

B2: MM-121 (antibody, V domains shown)
VH: EVQLLESGGGLVQPGGSLRLSCAASGFTFSAYNMRWVRQAPGKGLEWVSVIYPSGGATRYADSVKGRFTISRDNSKNTLYLQMNSLRAEDTAVYYCARGYYYYGMDVWGQGTLVTVSS
VL: QSVLTQPPSASGTPGQRVTISCSGSDSNIGRNYIYWYQQFPGTAPKLLIYRNNQRPSGVPDRISGSKSGTSASLAISGLRSEDEAEYHCGTWDDSLSGPVFGGGTKLTVL
The IC50 is the concentration at which inhibition is half-maximal. Turning to B2, the IC50 in experiment [2] worked out at 54.2 nM.

B3: anti-HER3 clone 10D1 IgG1 (antibody)
heavy: not shown
light: DIVMTQSQKFMSTSVGDRVSVTCKASQIVGSNVAWYQQKPGQSPKPLIYSASYRYSGVPDRFTASGSGTDFTLTITNVQSEDLAEYFCQQYSSHPLTFGAGTKLELKRTVAAPSVFIFPPSDEQLKSGTASVVCLLNNFYPREAKVQWKVDNALQSGNSQESVTEQDSKDSTYSLSSTLTLSKADYEKHKVYACEVTHQGLSSPVTKSFNRGEC
notes: Human-mouse chimeric IgG1 kappa; also called 10D1P; 10D1 (parental)
Take B3: the binding result in the experiment with human EGFR and with human HER2 was “no binding (tested: about log -6.7 M (10 µg/ml per paragraph 597))” throughout. Besides, the “% Parent (HER3 positive)” value in experiment [3] and in experiment [4] was 99% in each case.

B4: anti-HER3 clone 10D1_c91 IgG1 (antibody, V domains shown)
VH: QVQLQESGPGLVKPSQTLSLTCTVSGYYITSGYSWHWIRQHPGKGLEWIGSIRYSGGTDYNPSLKSLATISADTSKNQFSLKLSSVTAADTAVYYCARMTTAPWYPFDYWGQGTAVTVSS
VL: DIQMTQSPSSVSASVGDRVTITCKASQIVGSNVAWYQQKPGKAPMPLIYSASYGYSGVPSRFSGSGSGTDFTLTISSLQPEDFATYYCQQYSSHPLTFGQGTKLEIKR
notes: Humanised 10D1 variant, IgG1 kappa; also called [18]
For orientation: EC50 (read off the curve) means the midpoint of the concentration-response curve. In the case of B4, the “EC50 (read off the curve)” value in experiment [5] is roughly 6 ng/mL.
